Source: doi:10.1101/2023.05.26.542399

Molecular target: Arabidopsis thaliana PAXX (AtPAXX), full length, untagged (Arabidopsis thaliana)
Test: crystal structure

## Arabidopsis thaliana PAXX (AtPAXX), full length, untagged (natural protein)
  stoichiometry N: 2
